Here are results for one substance from article PMC12865202.

For this experiment, the target named is Chicken CapZ (full length α/β) (chicken) (UniProt P13127). Briefly: ITC. (In ITC the heat of successive injections is recorded.)

As for “RavB (full length, purified) (natural protein)”, the Kd (in general, the concentration at which binding is half-saturated) came out at 10.8 nM.
